One protein from paper PMC3937768 (Cell metabolism, 2014) can be followed below.

The data set concerns the molecule itself. The experiment in a line: non-reducing SDS-PAGE with immunoblot. (In western blotting, separated proteins are transferred to a membrane and probed.)

B1: Recombinant AMPKα2 (enzyme, rat, UniProt Q09137 1-552, looked up)
chain: MAEKQKHDGRVKIGHYVLGDTLGVGTFGKVKIGEHQLTGHKVAVKILNRQKIRSLDVVGKIKREIQNLKLFRHPHIIKLYQVISTPTDFFMVMEYVSGGELFDYICKHGRVEEVEARRLFQQILSAVDYCHRHMVVHRDLKPENVLLDAQMNAKIADFGLSNMMSDGEFLRTSCGSPNYAAPEVISGRLYAGPEVDIWSCGVILYALLCGTLPFDDEHVPTLFKKIRGGVFYIPEYLNRSIATLLMHMLQVDPLKRATIKDIREHEWFKQDLPSYLFPEDPSYDANVIDDEAVKEVCEKFECTESEVMNSLYSGDPQDQLAVAYHLIIDNRRIMNQASEFYLASSPPTGSFMDDMAMHIPPGLKPHPERMPPLIADSPKARCPLDALNTTKPKSLAVKKAKWHLGIRSQSKPYDIMAEVYRAMKQLDFEWKVVNAYHLRVRRKNPVTGNYVKMSLQLYLVDNRSYLLDFKSIDDEVVEQRSGSSTPQRSCSAAGLHRPRSSVDSSTAENHSLSGSLTGSLTGSTLSSASPRLGSHTMDFFEMCASLITALAR
For the protein B1, the binding result is reported as “binds”.
